Earlier results in article PMC9781680.

Target: GLP1 peptide (Homo sapiens) (UniProt P01275)
UniProt P01275, sequence (P01275 98-127): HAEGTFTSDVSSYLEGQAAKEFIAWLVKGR

**Q.** Which Kd does the source give for GLP1R (from UniProt P43220) here?
**A.** 0.5 nM
